B1: Receptor comprising gp130 (B10G) and LIF-R (pHLIFR-65) co-expressed on COS-7 cells (receptor)
chain 1: ELLDPCGYISPESPVVQLHSNFTAVCVLKEKCMDYFHVNANYIVWKTNHFTIPKEQYTIINRTASSVTFTDIASLNIQLTCNILTFGQLEQNVYGITIISGLPPEKPKNLSCIVNEGKKMRCEWDGGRETHLETNFTLKSEWATHKFADCKAKRDTPTSCTVDYSTVYFVNIEVWVEAENALGKVTSDHINFDPVYKVKPNPPHNLSVINSEELSSILKLTWTNPSIKSVIILKYNIQYRTKDASTWSQIPPEDTASTRSSFTVQDLKPFTEYVFRIRCMKEDGKGYWSDWSEEASGITYEDRPSKAPSFWYKIDPSHTQGYRTVQLVWKTLPPFEANGKILDYEVTLTRWKSHLQNYTVNATKLTVNLTNDRYLATLTVRNLVGKSDAAVLTIPACDFQATHPVMDLKAFPKDNMLWVEWTTPRESVKKYILEWCVLSDKAPCITDWQQEDGTVHRTYLRGNLAESKCYLITVTPVYADGPGSPESIKAYLKQAPPSKGPTVRTKKVGKNEAVLEWDQLPVDVQNGFIRNYTIFYRTIIGNETAVNVDSSHTEYTLSSLTSDTLYMVRMAAYTDEGGKDGPEFTFTTPKFAQGEIEAIVVPVCLAFLLTTLLGVLFCFNKRDLIKKHIWPNVPDPSKSHIAQWSPHTPPRHNFNSKDQMYSDGNFTDVSVVEIEANDKKPFPEDL
chain 2: QKKGAPHDLKCVTNNLQVWNCSWKAPSGTGRGTDYEVCIENRSRSCYQLEKTSIKIPALSHGDYEITINSLHDFGSSTSKFTLNEQNVSLIPDTPEILNLSADFSTSTLYLKWNDRGSVFPHRSNVIWEIKVLRKESMELVKLVTHNTTLNGKDTLHHWSWASDMPLECAIHFVEIRCYIDNLHFSGLEEWSDWSPVKNISWIPDSQTKVFPQDKVILVGSDITFCCVSQEKVLSALIGHTNCPLIHLDGENVAIKIRNISVSASSGTNVVFTTEDNIFGTVIFAGYPPDTPQQLNCETHDLKEIICSWNPGRVTALVGPRATSYTLVESFSGKYVRLKRAEAPTNESYQLLFQMLPNQEIYNFTLNAHNPLGRSQSTILVNITEKVYPHTPTSFKVKDINSTAVKLSWHLPGNFAKINFLCEIEIKKSNSVQEQRNVTIKGVENSSYLVALDKLNPYTLYTFRIRCSTETFWKWSKWSNKKQHLTTEASPSKGPDTWREWSSDGKNLIIYWKPLPINEANGKILSYNVSCSSDEETQSLSEIPDPQHKAEIRLDKNDYIISVVAKNSVGSSPPSKIASMEIPNDDLKIEQVVGMGKGILLTWHYDPNMTCDYVIKWCNSSRSEPCLMDWRKVPSNSTETVIESDEFRPGIRYNFFLYGCRNQGYQLLRSMIGYIEELAPIVAPNFTVEDTSADSILVKWEDIPVEELRGFLRGYLFYFGKGERDTSKMRVLESGRSDIKVKNITDISQKTLRIADLQGKTSYHLVLRAYTDGGVGPEKSMYVVTKENSVGLIIAILIPVAVAVIVGVVTSILCYRKREWIKETFYPDIPNPENCKALQFQKSVCEGSSALKTLEMNPCTPNNVEVLETRSAFPKIEDTEIISPVAERPEDRSDAEPENHVVVSYCPPIIEEEIPNPAADEAGGTAQVIYIDVQSMYQPQAKPEEKKKKSRSSRSKI
B4: Recombinant human leukemia inhibitory factor (LIF) (ligand)
chain: not shown
modifications: radioiodinated (125I) where used as the labelled ligand; non-radiolabeled where used as competitor

Columns and labels:
[1] = biological target: B4; assay: Scatchard analysis of 125I-LIF binding to COS-7 cells co-transfected with B10G and pHLIFR-65 (curve A), phthalate oil separation
Protocol: (§1) Host cells transfected with vector(s) encoding LIF-R or gp130 as described below were assayed for the ability to bind LIF. The host cells were the monkey kidney cell line designated COS-7, described by Glutzman, *Cell* 23:175 (1981). In separate transfections, COS-7 cells were transfected with the following combinations of vectors. The different types of transfected cells (and non-transfected control cells) are designated A–F as shown below, and the curves representing the LIF-binding assay data for each transfected or control cell type are also labeled A–F in FIG. 1.
(§2) Briefly, the COS-7 host cells were released from 10 cm tissue culture plates two days after transfection by incubation in non-enzymatic cell dissociation buffer (Sigma) at 37° C. for 30–60 minutes. Cells were then washed with the above-described binding medium and resuspended in binding medium at 5 ×10^6 cells/ml. 50 μl aliquots of the cells were incubated with serial dilutions of ^125I-LIF at room temperature for one hour with agitation (in the presence or absence of a 200-fold excess of unlabeled LIF) in a total volume of 150 μl. The unlabeled LIF allowed for calculation of the non-specific background binding of LIF. […]

[2] = biological target: B4; assay: 125I-LIF binding to COS-7 cells transfected with B10G and CAV (curve F against curve E), phthalate oil separation, Scatchard
Protocol: as §1, §2

[3] = biological target: B4; assay: Scatchard analysis of 125I-LIF binding to COS-7 cells transfected with pHLIFR-65 and CAV (curve B, site 2), phthalate oil separation
Protocol: as §1, §2

[4] = biological target: B1; assay: Scatchard analysis of 125I-LIF binding to co-transfected COS-7 cells preincubated with oncostatin M as competitor (curve C)
Protocol: as §1, §2

B1
Kd [1]: 0.9 nM

B2: Human gp130 encoded by plasmid B10G, expressed on COS-7 cells (receptor)
chain: ELLDPCGYISPESPVVQLHSNFTAVCVLKEKCMDYFHVNANYIVWKTNHFTIPKEQYTIINRTASSVTFTDIASLNIQLTCNILTFGQLEQNVYGITIISGLPPEKPKNLSCIVNEGKKMRCEWDGGRETHLETNFTLKSEWATHKFADCKAKRDTPTSCTVDYSTVYFVNIEVWVEAENALGKVTSDHINFDPVYKVKPNPPHNLSVINSEELSSILKLTWTNPSIKSVIILKYNIQYRTKDASTWSQIPPEDTASTRSSFTVQDLKPFTEYVFRIRCMKEDGKGYWSDWSEEASGITYEDRPSKAPSFWYKIDPSHTQGYRTVQLVWKTLPPFEANGKILDYEVTLTRWKSHLQNYTVNATKLTVNLTNDRYLATLTVRNLVGKSDAAVLTIPACDFQATHPVMDLKAFPKDNMLWVEWTTPRESVKKYILEWCVLSDKAPCITDWQQEDGTVHRTYLRGNLAESKCYLITVTPVYADGPGSPESIKAYLKQAPPSKGPTVRTKKVGKNEAVLEWDQLPVDVQNGFIRNYTIFYRTIIGNETAVNVDSSHTEYTLSSLTSDTLYMVRMAAYTDEGGKDGPEFTFTTPKFAQGEIEAIVVPVCLAFLLTTLLGVLFCFNKRDLIKKHIWPNVPDPSKSHIAQWSPHTPPRHNFNSKDQMYSDGNFTDVSVVEIEANDKKPFPEDL
binding result [2]: no binding

B3: Single-polypeptide chain human LIF-R encoded by pHLIFR-65, expressed on COS-7 cells (receptor)
chain: QKKGAPHDLKCVTNNLQVWNCSWKAPSGTGRGTDYEVCIENRSRSCYQLEKTSIKIPALSHGDYEITINSLHDFGSSTSKFTLNEQNVSLIPDTPEILNLSADFSTSTLYLKWNDRGSVFPHRSNVIWEIKVLRKESMELVKLVTHNTTLNGKDTLHHWSWASDMPLECAIHFVEIRCYIDNLHFSGLEEWSDWSPVKNISWIPDSQTKVFPQDKVILVGSDITFCCVSQEKVLSALIGHTNCPLIHLDGENVAIKIRNISVSASSGTNVVFTTEDNIFGTVIFAGYPPDTPQQLNCETHDLKEIICSWNPGRVTALVGPRATSYTLVESFSGKYVRLKRAEAPTNESYQLLFQMLPNQEIYNFTLNAHNPLGRSQSTILVNITEKVYPHTPTSFKVKDINSTAVKLSWHLPGNFAKINFLCEIEIKKSNSVQEQRNVTIKGVENSSYLVALDKLNPYTLYTFRIRCSTETFWKWSKWSNKKQHLTTEASPSKGPDTWREWSSDGKNLIIYWKPLPINEANGKILSYNVSCSSDEETQSLSEIPDPQHKAEIRLDKNDYIISVVAKNSVGSSPPSKIASMEIPNDDLKIEQVVGMGKGILLTWHYDPNMTCDYVIKWCNSSRSEPCLMDWRKVPSNSTETVIESDEFRPGIRYNFFLYGCRNQGYQLLRSMIGYIEELAPIVAPNFTVEDTSADSILVKWEDIPVEELRGFLRGYLFYFGKGERDTSKMRVLESGRSDIKVKNITDISQKTLRIADLQGKTSYHLVLRAYTDGGVGPEKSMYVVTKENSVGLIIAILIPVAVAVIVGVVTSILCYRKREWIKETFYPDIPNPENCKALQFQKSVCEGSSALKTLEMNPCTPNNVEVLETRSAFPKIEDTEIISPVAERPEDRSDAEPENHVVVSYCPPIIEEEIPNPAADEAGGTAQVIYIDVQSMYQPQAKPEEKKKKSRSSRSKI
Kd [3]: 2.4 nM

B4
KD after preincubation of the cells with non-radiolabeled oncostatin M [4]: 4.2 nM

— patent publication US5262522, “Receptor for oncostatin M and leukemia inhibitory factor” (Immunex Corporation, dated 1993)
